Data as given in patent US20200317768A1 (published 2020).

T1: human FcγRIIaH extracellular domain, C-terminal His-tag (human, UniProt P12318 34-217)
T1 construct: also called human FcγRIIa (type H); FcgRIIaH; not shown: His-tag added to C-terminus
T1 sequence: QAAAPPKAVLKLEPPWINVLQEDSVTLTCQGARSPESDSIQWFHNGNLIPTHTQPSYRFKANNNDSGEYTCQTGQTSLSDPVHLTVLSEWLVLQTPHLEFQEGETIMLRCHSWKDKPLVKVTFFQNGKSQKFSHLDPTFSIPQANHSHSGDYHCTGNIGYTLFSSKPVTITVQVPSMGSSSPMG

T2: human FcγRIIaR extracellular domain, C-terminal His-tag (human, UniProt P12318 34-217)
T2 construct: also called human FcγRIIa (type R); FcgRIIaR; not shown: His-tag added to C-terminus
T2 chain: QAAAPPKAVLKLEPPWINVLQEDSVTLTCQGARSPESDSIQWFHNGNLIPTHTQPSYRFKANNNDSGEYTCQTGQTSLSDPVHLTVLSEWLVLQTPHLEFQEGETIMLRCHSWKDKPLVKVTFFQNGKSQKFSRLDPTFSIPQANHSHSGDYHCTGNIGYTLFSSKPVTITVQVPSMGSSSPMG

T3: human FcγRIIb extracellular domain, C-terminal His-tag (human, UniProt P31994 43-217)
T3 construct: also called humanFcgRIIb; not shown: His-tag added to C-terminus
T3 sequence: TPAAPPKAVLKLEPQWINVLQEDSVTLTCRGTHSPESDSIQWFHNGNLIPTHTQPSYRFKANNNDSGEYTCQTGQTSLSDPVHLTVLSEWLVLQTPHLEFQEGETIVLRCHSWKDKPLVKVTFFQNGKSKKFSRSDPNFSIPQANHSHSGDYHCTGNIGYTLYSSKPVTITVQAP

T4: cynomolgus monkey FcγRIIa1 extracellular domain, C-terminal His-tag (cynomolgus monkey)
T4 construct: also called cyno FcγRIIa1; cynoFcgRIIa1; not shown: His-tag added to C-terminus
T4 chain: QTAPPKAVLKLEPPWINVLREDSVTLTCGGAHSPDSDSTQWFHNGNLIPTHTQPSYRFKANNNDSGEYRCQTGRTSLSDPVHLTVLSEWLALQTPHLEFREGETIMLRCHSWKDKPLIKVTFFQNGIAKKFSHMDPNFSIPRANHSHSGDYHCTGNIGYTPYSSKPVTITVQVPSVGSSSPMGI

T5: cynomolgus monkey FcγRIIa2 extracellular domain, C-terminal His-tag (cynomolgus monkey)
T5 construct: also called cyno FcγRIIa2; cynoFcgRIIa2; not shown: His-tag added to C-terminus
T5 chain: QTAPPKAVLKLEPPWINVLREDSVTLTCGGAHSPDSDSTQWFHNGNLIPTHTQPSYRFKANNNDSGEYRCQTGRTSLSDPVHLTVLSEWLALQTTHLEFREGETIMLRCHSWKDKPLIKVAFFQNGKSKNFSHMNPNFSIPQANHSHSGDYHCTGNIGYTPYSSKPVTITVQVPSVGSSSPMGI

T6: cynomolgus monkey FcγRIIb extracellular domain, C-terminal His-tag (cynomolgus monkey)
T6 construct: also called cyno FcγRIIb; cynoFcγRIIb; not shown: His-tag added to C-terminus
T6 chain: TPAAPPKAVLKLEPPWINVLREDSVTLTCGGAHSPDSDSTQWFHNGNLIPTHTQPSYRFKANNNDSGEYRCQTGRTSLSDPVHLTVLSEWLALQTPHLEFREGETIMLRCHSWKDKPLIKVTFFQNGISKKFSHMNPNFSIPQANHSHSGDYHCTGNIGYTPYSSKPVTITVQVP

T7: cynomolgus monkey FcγRIIa3 extracellular domain, C-terminal His-tag (cynomolgus monkey)
T7 construct: also called cyno FcγRIIa3; cynoFcgRIIa3; not shown: His-tag added to C-terminus
T7 chain: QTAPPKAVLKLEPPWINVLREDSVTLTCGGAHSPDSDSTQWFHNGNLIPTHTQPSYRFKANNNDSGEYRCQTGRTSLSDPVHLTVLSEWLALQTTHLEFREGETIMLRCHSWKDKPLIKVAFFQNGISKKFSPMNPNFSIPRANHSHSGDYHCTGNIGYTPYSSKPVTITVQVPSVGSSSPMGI

B1: M103205H795-MY533 / M103202L889-SK1 (antibody, human IgG1, kappa)
heavy: QVTLKESGPVLVKPTETLTLTCTVSGIDLSHDDISWVRQAPGKGLEWVGIISYAGSTYYASWAKGRLTISKDTSKNQVVLTMTNMDPVDTATYYCARGVPAYSHGGDLWGQGTLVTVSSASTKGPSVFPLAPSSKSTSGGTAALGCLVKDYFPEPVTVSWNSGALTSGVHTFPAVLQSSGLYSLSSVVTVPSSSLGTQTYICNVNHKPSNTKVDKKVEPKSCDKTHTCPPCPAPEWLTGPVVFLFPPKPKDTLMISRTPEVTCVVVDVSDEDPEVKFNWYVDGVEVHNAKTKPREELYNSTYRVVSVLTVLHQDWLNGKEYKCKVSNKALPKPIEKTISKAKGQPREPQVYTLPPSREEMTKNQVSLTCLVKGFYPSDIAVEWESNGQPENNYKTTPPVLDSDGSFFLYSKLTVDKSRWQQGNVFSCSVMHEALHNHYTQKSLSLSP
light: DIVMTQSPATLSLSPGERATLSCTSSQSVYHANWLSWFQQKPGQPPKLLIYWASTLAYGVPSRFSGSGSGTDFTLTISSLQPEDAATYYCAGGYGGGRYAFGQGTKVEIKRTVAAPSVFIFPPSDEQLKSGTASVVCLLNNFYPREAKVQWKVDNALQSGNSQESVTEQDSKDSTYSLSSTLTLSKADYEKHKVYACEVTHQGLSSPVTKSFNRGEC
B2: M103205H795-MY534 / M103202L889-SK1 (antibody, human IgG1, kappa)
heavy: QVTLKESGPVLVKPTETLTLTCTVSGIDLSHDDISWVRQAPGKGLEWVGIISYAGSTYYASWAKGRLTISKDTSKNQVVLTMTNMDPVDTATYYCARGVPAYSHGGDLWGQGTLVTVSSASTKGPSVFPLAPSSKSTSGGTAALGCLVKDYFPEPVTVSWNSGALTSGVHTFPAVLQSSGLYSLSSVVTVPSSSLGTQTYICNVNHKPSNTKVDKKVEPKSCDKTHTCPPCPAPELLTGPVVFLFPPKPKDTLMISRTPEVTCVVVDVSDEDPEVKFNWYVDGVEVHNAKTKPREELYNSTYRVVSVLTVLHQDWLNGKEYKCKVSNKALPKPIEKTISKAKGQPREPQVYTLPPSREEMTKNQVSLTCLVKGFYPSDIAVEWESNGQPENNYKTTPPVLDSDGSFFLYSKLTVDKSRWQQGNVFSCSVMHEALHNHYTQKSLSLSP
light: DIVMTQSPATLSLSPGERATLSCTSSQSVYHANWLSWFQQKPGQPPKLLIYWASTLAYGVPSRFSGSGSGTDFTLTISSLQPEDAATYYCAGGYGGGRYAFGQGTKVEIKRTVAAPSVFIFPPSDEQLKSGTASVVCLLNNFYPREAKVQWKVDNALQSGNSQESVTEQDSKDSTYSLSSTLTLSKADYEKHKVYACEVTHQGLSSPVTKSFNRGEC
B3: M103205H795-MY535 / M103202L889-SK1 (antibody, human IgG1, kappa)
heavy: QVTLKESGPVLVKPTETLTLTCTVSGIDLSHDDISWVRQAPGKGLEWVGIISYAGSTYYASWAKGRLTISKDTSKNQVVLTMTNMDPVDTATYYCARGVPAYSHGGDLWGQGTLVTVSSASTKGPSVFPLAPSSKSTSGGTAALGCLVKDYFPEPVTVSWNSGALTSGVHTFPAVLQSSGLYSLSSVVTVPSSSLGTQTYICNVNHKPSNTKVDKKVEPKSCDKTHTCPPCPGPEWLTGPSVFLFPPKPKDTLMISRTPEVTCVVVDVSDEDPEVKFNWYVDGVEVHNAKTKPREEQYNSTYRVVSVLTVLHQDWLNGKEYKCKVSNKALPKPIEKTISKAKGQPREPQVYTLPPSREEMTKNQVSLTCLVKGFYPSDIAVEWESNGQPENNYKTTPPVLDSDGSFFLYSKLTVDKSRWQQGNVFSCSVMHEALHNHYTQKSLSLSP
light: DIVMTQSPATLSLSPGERATLSCTSSQSVYHANWLSWFQQKPGQPPKLLIYWASTLAYGVPSRFSGSGSGTDFTLTISSLQPEDAATYYCAGGYGGGRYAFGQGTKVEIKRTVAAPSVFIFPPSDEQLKSGTASVVCLLNNFYPREAKVQWKVDNALQSGNSQESVTEQDSKDSTYSLSSTLTLSKADYEKHKVYACEVTHQGLSSPVTKSFNRGEC

How the values were obtained:
Assay in all cases: SPR (BIACORE); KD of SG1 / KD of variant;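 further: relative to parent M103205H795-SG1 carrying the SG1 human heavy chain constant region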
[1] = target: T8, human FcγRIIIaV extracellular domain, C-terminal His-tag (human, UniProt P08637 17-208)
T8 construct: also called FcgRIIIaV; not shown: His-tag added to C-terminus
T8 sequence (P08637 17-208 F176V): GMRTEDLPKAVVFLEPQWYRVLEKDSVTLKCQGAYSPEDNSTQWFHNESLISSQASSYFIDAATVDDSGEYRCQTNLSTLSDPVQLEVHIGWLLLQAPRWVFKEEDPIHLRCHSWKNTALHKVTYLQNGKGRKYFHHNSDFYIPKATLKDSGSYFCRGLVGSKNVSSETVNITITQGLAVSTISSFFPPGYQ
Description: (§1) The kinetic analysis of interactions between these antibodies and FcγR was carried out using BIACORE® T200 or BIACORE® 4000 (GE Healthcare). HBS-EP+ (GE Healthcare) was used as the running buffer, and the measurement temperature was set to 25° C. A chip produced by immobilizing Protein A. Protein A/G or mouse anti-human IgG kappa light chain (BD Biosciences) onto a Series S Sensor Chip CM4 or CM5 (GE Healthcare) by the amine-coupling method was used. […] After the measurement, the antibody captured on the chip was washed off by allowing reaction with 10 mM glycine-HCl, pH1.5 and 25 mM NaOH so that the chip was regenerated and used repeatedly. The sensorgrams obtained as measurement results were analyzed by the 1:1 Langmuir binding model using the BIACORE® Evaluation Software to calculate the binding rate constant ka (L/mol/s) and dissociation rate constant kd (l/s), and the dissociation constant KD (mol/L) was calculated from these values. […] Regarding such interactions, KD values were calculated using the following 1:1 binding model described in BIACORE® T100 Software Handbook BR1006-48 Edition AE.
(§2) The behavior of interacting molecules according to the 1:1 binding model on BIACORE® can be described by Equation 1: Req=C·R max/(KD+C)+RI, wherein, Req is a plot of steady-state binding levels to analyte concentration. C is concentration, RI is bulk refractive index contribution in the sample, and Rmax is analyte binding capacity of the surface. When this equation is rearranged, KD can be expressed as Equation 2: KD=C·Rmax/(Req−RI)−C. KD can be calculated by substituting the values of Rmax, RI, and C into Equation 1 or Equation 2. From the current measurement conditions, RI=0, C=2 μmol/L can be used.

[2] = target: T1, human FcγRIIaH extracellular domain, …
Description: as §1, §2

[3] = target: T9, cynomolgus monkey FcγRIIIaS extracellular domain, C-terminal His-tag (cynomolgus monkey, UniProt A3RFZ7 21-206 (rhesus entry))
T9 construct: also called cyno FcγRIIIaS; cynoFcγRIIIaS; not shown: His-tag added to C-terminus
T9 sequence (A3RFZ7 21-206): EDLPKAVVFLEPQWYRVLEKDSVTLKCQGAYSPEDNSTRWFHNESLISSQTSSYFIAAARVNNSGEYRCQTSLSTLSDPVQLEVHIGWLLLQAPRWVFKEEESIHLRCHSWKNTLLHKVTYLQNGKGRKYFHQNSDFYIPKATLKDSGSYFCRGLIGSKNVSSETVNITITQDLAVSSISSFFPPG
Description: as §1, §2

[4] = target: T2, human FcγRIIaR extracellular domain, …
Description: as §1, §2

[5] = target: T3, human FcγRIIb extracellular domain, …
Description: as §1, §2

[6] = target: T4, cynomolgus monkey FcγRIIa1 …
Description: as §1, §2

[7] = target: T5, cynomolgus monkey FcγRIIa2 …
Description: as §1, §2

[8] = target: T6, cynomolgus monkey FcγRIIb extracellular …
Description: as §1, §2

[9] = target: T7, cynomolgus monkey FcγRIIa3 …
Description: as §1, §2

| Binder | KD fold (SG1 = 1) [1] | KD fold (SG1 = 1) [2] | KD fold (SG1 = 1) [3] | KD fold (SG1 = 1) [4] | KD fold (SG1 = 1) [5] | KD fold (SG1 = 1) [6] | KD fold (SG1 = 1) [7] | KD fold (SG1 = 1) [8] | KD fold (SG1 = 1) [9] |
| --- | --- | --- | --- | --- | --- | --- | --- | --- | --- |
| B1 | 0.45 fold | 3.3 fold | 0.33 fold | 5.5 fold | 4.5 fold | 4 fold | 7 fold | 7.2 fold | 14.2 fold |
| B2 | 0.19 fold | 4.1 fold | 0.22 fold | 3.8 fold | 3.8 fold | 2.5 fold | 3.9 fold | 4.3 fold | 14.2 fold |
| B3 | 0.16 fold | 1.5 fold | 0.17 fold | 1.7 fold | 2.4 fold | 2.1 fold | 3.6 fold | 4.4 fold | 5.7 fold |
